From paper PMC11670205 (Frontiers in Immunology, 2024) come the findings set out here.

Experiment [1] addresses human TSLP receptor complex composed of IL-7Rα and TSLPR expressed on cell surface of transfected HEK293T (human) (UniProt Q9HC73).
A further experiment concerns the target T1, recombinant mouse TSLP (Mus musculus, UniProt Q9JIE6).
T1 construct: thymic stromal lymphopoietin, mouse; also called murine TSLP; source: bought: AcroBiosystems
Kind of experiment: ELISA; recombinant TSLP coated at 1 μg/mL in DPBS pH 7.2 overnight at 4°C; antibodies in serial 3-fold dilutions from 1 μg/mL, 2 hours at room temperature; HRP anti-human IgG detection. The settings on record: both partners purified. (In an ELISA, binding on a coated surface is turned into a signal by an enzyme label.)

In experiment [2] the target is T2, recombinant cynomolgus monkey TSLP (Macaca fascicularis, UniProt A0A7N9CAT7).
T2 construct: thymic stromal lymphopoietin, cynomolgus monkey; source: bought: AcroBiosystems
Described as above. Conditions: both partners purified.

Chain of human TSLP receptor complex composed of IL-7Rα and TSLPR expressed on cell surface of transfected HEK293T (human) (Q9HC73 23-371, chain 1 of 2): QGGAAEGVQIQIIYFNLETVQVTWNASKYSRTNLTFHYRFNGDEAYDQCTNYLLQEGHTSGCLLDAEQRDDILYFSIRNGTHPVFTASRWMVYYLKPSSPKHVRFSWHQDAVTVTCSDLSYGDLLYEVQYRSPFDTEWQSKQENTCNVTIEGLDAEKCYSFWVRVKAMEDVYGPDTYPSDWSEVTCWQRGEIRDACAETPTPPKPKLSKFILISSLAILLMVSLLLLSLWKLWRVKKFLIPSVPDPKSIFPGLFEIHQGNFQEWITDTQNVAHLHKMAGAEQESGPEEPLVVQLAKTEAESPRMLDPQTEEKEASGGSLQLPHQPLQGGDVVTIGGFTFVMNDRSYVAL
Chain of human TSLP receptor complex composed of IL-7Rα and TSLPR expressed on cell surface of transfected HEK293T (human) (chain, as listed by the source, chain 2 of 2): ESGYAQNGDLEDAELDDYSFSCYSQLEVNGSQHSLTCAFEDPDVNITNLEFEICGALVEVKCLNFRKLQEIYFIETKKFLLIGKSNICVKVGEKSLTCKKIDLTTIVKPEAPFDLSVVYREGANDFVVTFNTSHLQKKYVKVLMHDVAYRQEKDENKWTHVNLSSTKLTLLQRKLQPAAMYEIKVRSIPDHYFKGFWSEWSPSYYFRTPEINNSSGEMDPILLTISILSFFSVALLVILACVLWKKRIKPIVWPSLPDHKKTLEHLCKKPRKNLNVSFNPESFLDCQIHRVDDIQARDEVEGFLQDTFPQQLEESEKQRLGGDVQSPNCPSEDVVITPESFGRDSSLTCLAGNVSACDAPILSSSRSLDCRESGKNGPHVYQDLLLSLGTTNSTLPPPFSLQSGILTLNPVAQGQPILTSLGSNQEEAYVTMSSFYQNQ
T1 sequence (Q9JIE6 20-140): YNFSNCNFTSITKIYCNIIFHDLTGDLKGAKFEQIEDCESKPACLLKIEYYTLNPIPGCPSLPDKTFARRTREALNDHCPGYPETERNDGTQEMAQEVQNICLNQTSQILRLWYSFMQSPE

As to “recombinant human thymic stromal lymphopoietin (from UniProt Q969D9 29-159) (ligand)”, in experiment [1], the EC50 of TSLP-driven STAT5 luciferase reporter gene expression in HEK293T cells transfected with TSLPR and IL-7Rα was determined as 1.1 ng/mL.

B1: tezepelumab analogue antibody (antibody, V domains shown)
VH: QMQLVESGGGVVQPGRSLRLSCAASGFTFRTYGMHWVRQAPGKGLEWVAVIWYDGSNKHYADSVKGRFTITRDNSKNTLNLQMNSLRAEDTAVYYCARAPQWELVHEAFDIWGQGTMVTVSS
VL: SYVLTQPPSVSVAPGQTARITCGGNNLGSKSVHWYQQKPGQAPVLVVYDDSDRPSWIPERFSGSNSGNTATLTISRGEAGDEADYYCQVWDSSSDHVVFGGGTKLTVL
notes: heavy chain of tezepelumab as deposited in PDB 5J13; rest of the heavy chain constant region (hinge, Fc) beyond what the PDB entry holds; light chain of tezepelumab as deposited in PDB 5J13; It was captured by anti-Fc probes and detected with anti-human IgG; also called AMG157; MEDI9929; source: Expi293F, transfected, purified (MabSelect SuRe, desalting column)
Consider B1, for which the figures for the binding result (with recombinant mouse TSLP; in experiment [2]) were “no binding (tested: 1 μg/mL)” and “binds”, respectively.
